Source: patent US9611295B2, “Treatment of IL-17 mediated disease by blocking SEFIR-SEFIR interactions” (THE CLEVELAND CLINIC FOUNDATION, priority 2011, dated 2017)

Molecular target: T1, Act1-IL-17RA interaction (Homo sapiens, UniProt Q96F46)
T1 construct: expressed in transfected cells; host or cells: HeLa
T1 sequence (Q96F46 33-866): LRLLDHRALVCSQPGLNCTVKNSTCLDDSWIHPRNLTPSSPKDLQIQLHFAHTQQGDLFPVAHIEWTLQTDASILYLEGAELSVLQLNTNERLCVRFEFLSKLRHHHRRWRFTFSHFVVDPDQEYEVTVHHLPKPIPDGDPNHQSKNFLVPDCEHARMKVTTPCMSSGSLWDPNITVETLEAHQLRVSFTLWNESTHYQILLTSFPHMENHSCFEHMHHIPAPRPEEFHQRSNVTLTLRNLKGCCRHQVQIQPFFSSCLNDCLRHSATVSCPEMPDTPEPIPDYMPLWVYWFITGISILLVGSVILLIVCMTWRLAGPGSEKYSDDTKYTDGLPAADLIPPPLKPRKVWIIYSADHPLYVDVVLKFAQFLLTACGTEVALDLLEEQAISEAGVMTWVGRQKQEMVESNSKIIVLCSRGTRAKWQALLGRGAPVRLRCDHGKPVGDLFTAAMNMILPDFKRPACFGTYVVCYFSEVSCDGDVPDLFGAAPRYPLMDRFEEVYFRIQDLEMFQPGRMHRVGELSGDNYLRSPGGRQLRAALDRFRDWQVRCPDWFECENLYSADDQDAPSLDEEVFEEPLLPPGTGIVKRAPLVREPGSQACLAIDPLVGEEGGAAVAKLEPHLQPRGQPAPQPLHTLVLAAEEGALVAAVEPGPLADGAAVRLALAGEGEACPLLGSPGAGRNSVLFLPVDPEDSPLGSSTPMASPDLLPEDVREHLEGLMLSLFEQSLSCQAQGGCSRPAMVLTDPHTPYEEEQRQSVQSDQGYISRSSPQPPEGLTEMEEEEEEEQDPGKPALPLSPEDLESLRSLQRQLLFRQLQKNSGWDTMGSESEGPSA
Experiment: Co-immunoprecipitation of Act1 and IL-17RA in transfected HeLa cells
Assay type: cell-based, mouse Act1, human IL-17RA
Settings: peptides 200 μM, 24 hours
Experimental: FIG. 4 provides data showing that a cell-permeable CC′ loop decoy peptide disrupts the interaction between Act1 and IL-17RA and inhibits IL-17R and IL-25R signaling. FIG. 4A provides sequences of Antennapedia homeodomain (Antp) (SEQ ID NO: 11)and decoy peptides (SEQ ID NOS 23-25 and 17, respectively, in order of appearance) with the Antp sequence underlined. FIG. 4B provides flow cytometry results based on experiments in which MEFs expressing IL-17RB were incubated for 2 or 24 hours with the indicated FITC-tagged peptides (200 μM) and were then analyzed by flow cytometry. […] The percentages of FITC-positive cells in the treated samples are shown. […] FIG. 4D provides Western blot results of experiments in which MEFs expressing IL-17RB were incubated with the indicated peptides (200 μM) for 24 hours after which they were treated with IL-17 or IL-25 and then analyzed by Western blotting with the indicated antibodies. […] The abundances of Cxcl1 and Il13 mRNAs were then measured by real-time RT-PCR. […]
Decoy peptides are based on surface-exposed regions of the primary sequence of a protein to mimic a putative interaction interface. […] These decoy peptides were also tagged at their C-termini with fluorescein isothiocyanate (FITC) to enable their cell-penetrating efficiency to be evaluated by flow cytometric sanalysis. […]

DRQIKIWFQNRRMKWKKLDEDEHGLHTKY [CC′ loop decoy peptide]
inhibition of the Act1-IL-17RA interaction (co-IP): more efficiently inhibited
